One assay addresses Streptavidin (UniProt P22629 37-163). Nature of the assay: ELISA, group 6, Streptavidin. Background: An ELISA detects its analyte on a solid surface through an enzyme-linked reagent.
Another assay addresses T1, Bovine Serum Albumin (bovine, UniProt P02769 25-607).
T1 construct: also called BSA
Put plainly: ELISA, group 5, BSA.

Assay [1] concerns the target multiple antigen peptide presenting amino acids 144-153 of the human prion protein (MAP-PrP […]) (human). Nature of the assay: ELISA, group 3, MAP-PrP.

Chain of Streptavidin (P22629 37-163 limits assumed): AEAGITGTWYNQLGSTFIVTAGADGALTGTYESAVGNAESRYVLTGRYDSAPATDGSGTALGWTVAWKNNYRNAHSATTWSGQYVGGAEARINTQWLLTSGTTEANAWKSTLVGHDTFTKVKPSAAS
T1 sequence (P02769 25-607 limits assumed): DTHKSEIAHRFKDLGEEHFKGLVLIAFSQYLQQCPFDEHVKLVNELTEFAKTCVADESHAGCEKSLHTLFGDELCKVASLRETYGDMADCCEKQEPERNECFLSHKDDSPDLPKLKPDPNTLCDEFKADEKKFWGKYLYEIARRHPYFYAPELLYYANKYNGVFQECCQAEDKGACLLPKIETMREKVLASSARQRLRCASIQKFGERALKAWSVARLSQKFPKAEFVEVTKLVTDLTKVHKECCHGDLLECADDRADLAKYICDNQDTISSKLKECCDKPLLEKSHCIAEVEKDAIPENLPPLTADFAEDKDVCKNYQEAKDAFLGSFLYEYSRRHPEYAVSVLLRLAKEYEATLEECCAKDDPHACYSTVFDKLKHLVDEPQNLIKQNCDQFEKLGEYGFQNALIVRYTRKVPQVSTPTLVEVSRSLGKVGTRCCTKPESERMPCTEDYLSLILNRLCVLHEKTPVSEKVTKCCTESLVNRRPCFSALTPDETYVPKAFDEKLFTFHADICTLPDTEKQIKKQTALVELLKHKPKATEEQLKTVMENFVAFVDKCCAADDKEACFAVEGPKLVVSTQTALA

B1: A4 scFv (scFv)
scFv: VQLLESGGGLVQPGGSLRLSCAASGFTFSGYWMHWVRQAPGKGLEWVSEISGSGDSTHYGDSVKGRFTISRDNSKNTLYLQMNSLRAEDTAVYYCARGRNGSLDYWGQGTLVTVSSGSAGGGGSGGGGSGGGGSDIVLTQPPSASGTPGQRVTISCTGNSSNIGAGYDVHWYQQLPGKAPKLLIYSNNQRPSGVPDRFSGSKSGTSASLAISGLRSEDEADYYCAAWDDSLSSVVFGGGTKLTV
In the case of B1, the binding result with Streptavidin and with Bovine Serum Albumin was “no binding (tested: not given on the sheet)” in each case.

B2: F2 scFv (scFv)
scFv: VQLLESGGGLVQPGGSLRLSCAASGFTFSGYWMHWVRQAPGKGLEWVSEISGSGDSTHYGDSVKGRFTISRDNSKNTLYLQMNSLRAEDTAVYYCARGRNGSLDYWGQGTLVTVSSGSAGGGGSGGGGSGGGGSDIVLTQPPSASGTPGQRVTISCSGTSSNIGADYDVHWYQQLPGKAPKLLIYDNNKRPSGVSDRFSGSKSGTSASLAISGLRSEDEADYYCAAWDSSLSSVVFGGGTQLTV
Consider B2, for which the binding result (in assay [1]; in the assay with Streptavidin) was “no binding (tested: not given on the sheet)” in each case.

B3: B6 scFv (scFv)
scFv: VQLLESGGGLVQPGGSLRLSCAASGFTFSGYWMHWVRQAPGKGLEWVSEISGSGDSTHYGDSVKGRFTISRDNSKNTLYLQMNSLRAEDTAVYYCARGRNGSLDYWGQGTLVTVSSGSAGGGGSGGGGSGGGGSDIVLTQPPSASGTPGQRVTISCTGSSANIGAGYDVHWYQQLPGKAPKLLIYDNDKRPSGVPDRFSGSKSGTSASLAISGLRSEDEADYYCAAWDDRLSGVVFGGGTKVTV
With B3, the binding result (in assay [1]; with Streptavidin; with Bovine Serum Albumin) was “no binding (tested: not given on the sheet)” in each case.
